Data from article PMC12326000.

Biological target: CanA from Pyrodictium abyssi (recombinant full-length CanA) (Pyrodictium abyssi)
Experiment: 1H NMR signal decay during polymerization; 0.97 mM CanA in 50 mM Tris-HCl, 50 mM NaCl, pH 7.5, 10% D2O, 0.4 mM DSS; polymerization started by MgCl2 and CaCl2 to 20 mM each; 298 K; about 42 h; intensity of -0.6 to 0.1 ppm fitted by single or double exponential

critical CanA concentration for polymerization: 2.48 µM
Substance: CanA from Pyrodictium abyssi (recombinant full-length CanA) (natural protein)
